{"source": "patent US20240270821A1", "about": "“GIP/GLP1/GCG TRI-RECEPTOR AGONISTS AND USES THEREOF” (priority 2023, published 2024)", "binders": {"B1": {"name": "Example 368 (peptide)", "chain": "YXQGTXTSDYXIXLDXKAQXXFIEXLLEGGPSSGEPPPS", "modifications": "synthetic construct; SITE 2: note = 2-Aminoisobutyric Acid; SITE 6: note = alpha-methyl-2-fluoro-L-phenylalanine; SITE 11: note = alpha-methyl-L-serine; SITE 13: note = alpha-methyl-leucine; SITE 16: note = L-ornithine; SITE 17: note = Lysine is chemically modified through conjugation of the epsilon"}, "B2": {"name": "Example 373 (peptide)", "chain": "B1 chain with Y10X, X11S, G34X, S39E", "modifications": "synthetic construct; SITE 2: note = 2-Aminoisobutyric Acid; SITE 6: note = alpha-methyl-2-fluoro-L-phenylalanine; SITE 10: note = 3-(4-Pyridyl)-L-alanine; SITE 13: note = alpha-methyl-leucine; SITE 16: note = L-ornithine; SITE 17: note = Lysine is chemically modified through conjugation of the epsil"}, "B3": {"name": "Example 375 (peptide)", "chain": "B1 chain with Y10X, L27I", "modifications": "synthetic construct; SITE 2: note = 2-Aminoisobutyric Acid; SITE 6: note = alpha-methyl-2-fluoro-L-phenylalanine; SITE 10: note = 3-(4-Pyridyl)-L-alanine; SITE 11: note = alpha-methyl-L-serine; SITE 13: note = alpha-methyl-leucine; SITE 16: note = L-ornithine; SITE 17: note = Lysine is chemically mo"}}, "note": "Changes are numbered by the printed parent chain. Starred links: 1 amine or outer side, 2 acyl side, 3 side chain; linkers in the order of their positions; H or OH if unused. Non-standard residues stand in square brackets, D forms with d. Groups on a side chain read outwards from the residue. No end group written: not given here. *: point of attachment. C20 diacid = O=C(O)CCCCCCCCCCCCCCCCCCC(=O)*; Phe(4-CN) = N#Cc1ccc(C[C@H](N)C(=O)O)cc1; αMePhe(2-F) = C[C@](N)(Cc1ccccc1F)C(=O)O; γGlu = O=C(O)[C@H](CCC(=O)[*:2])N[*:1]; αMeL = CC(C)C[C@](C)(N)C(=O)O; AEEA = NCCOCCOCC(=O)O; Aib = CC(C)(N)C(=O)O"}
{"target": "T1, human GIP receptor (human) (UniProt P48546)", "T1 sequence (looked up)": "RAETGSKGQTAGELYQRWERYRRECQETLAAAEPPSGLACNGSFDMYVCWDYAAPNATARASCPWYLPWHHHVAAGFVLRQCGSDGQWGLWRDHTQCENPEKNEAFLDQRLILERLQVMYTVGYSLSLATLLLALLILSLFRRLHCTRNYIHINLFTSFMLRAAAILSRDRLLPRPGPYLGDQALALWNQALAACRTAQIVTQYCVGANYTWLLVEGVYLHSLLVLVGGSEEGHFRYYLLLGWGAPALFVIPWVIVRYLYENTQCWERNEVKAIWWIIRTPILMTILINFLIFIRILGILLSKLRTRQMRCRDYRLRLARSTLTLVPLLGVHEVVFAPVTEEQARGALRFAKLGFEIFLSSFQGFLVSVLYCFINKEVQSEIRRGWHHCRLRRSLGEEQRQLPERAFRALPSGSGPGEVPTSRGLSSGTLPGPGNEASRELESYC", "assay": "cell-based or functional assay", "units": {"Relative cAMP EC50": "nM", "cAMP Rel EC50, nM (1% HSA)": "nM", "cAMP Rel EC50 (1% HSA)": "nM"}}
{"binder": "Y[Aib]QGT[αMePhe(2-F)]TSDYSKLLDKIAQKAFIEYLIEGGPSSGAPPPSGE-NH2 (not fully specified (residue 20))", "note": "[Example 356]", "Relative cAMP EC50": 0.0613, "cAMP Rel EC50, nM (1% HSA)": 19.2}
{"binder": "Y[Aib]QGT[αMePhe(2-F)]TSDFSILLDKQAQKAFIEYLLEGGPSSGEPPPSEG-NH2 (not fully specified (residue 20))", "note": "[Example 346]", "Relative cAMP EC50": 0.0738, "cAMP Rel EC50 (1% HSA)": 28.3}
{"binder": "Y[Aib]QGTFTSDYSI[αMeL]LDKQAAKQFIEYLIA[Aib]GPSSGEPPPSEG-NH2 (not fully specified (residue 20))", "note": "[Example 349]", "Relative cAMP EC50": 0.152, "cAMP Rel EC50, nM (1% HSA)": 52.6}
{"binder": "Y[Aib]QGT[αMePhe(2-F)]TSD[Phe(4-CN)]SILLDKQAQKAFIEYLLEGGPSSGEPPPSAG-NH2 (not fully specified (residue 20))", "note": "[Example 350]", "Relative cAMP EC50": 0.106, "cAMP Rel EC50, nM (1% HSA)": 33.6}
{"binder": "Y[Aib]QGT[αMePhe(2-F)]TSD[Phe(4-CN)]SILLDKQAQKAFIQYLLEGGPSSGEPPPSEG-NH2 (not fully specified (residue 20))", "note": "[Example 341]", "Relative cAMP EC50": 0.213, "cAMP Rel EC50 (1% HSA)": 49.6}
{"binder": "Y[Aib]QGT[αMePhe(2-F)]TSD[Phe(4-CN)]SKLLDKIAQK([AEEA-γGlu-C20 diacid])AFIEYLIEGGPSSGEPPPSGS-NH2", "note": "[Example 364]", "Relative cAMP EC50": 0.457, "cAMP Rel EC50, nM (1% HSA)": 101}
{"binder": "Y[Aib]QGT[αMePhe(2-F)]TSD[Phe(4-CN)]SILLDKQAQKAFIQYLLEGGPSSGEPPPSEG-NH2 (not fully specified (residue 20))", "note": "[Example 353]", "Relative cAMP EC50": 0.127, "cAMP Rel EC50, nM (1% HSA)": 53.7}
{"binder": "Y[Aib]QGT[αMePhe(2-F)]TSDYSKILDKIAQKAFIEYLIEGGPSSGAPPPSEG-NH2 (not fully specified (residue 20))", "note": "[Example 355]", "Relative cAMP EC50": 0.0811, "cAMP Rel EC50, nM (1% HSA)": 33.2}
{"binder": "Y[Aib]QGT[αMePhe(2-F)]TSDYSKLLDKIAQKAFIEYLIEGGPSSGAPPPEGE-NH2 (not fully specified (residue 20))", "note": "[Example 357]", "Relative cAMP EC50": 0.077, "cAMP Rel EC50, nM (1% HSA)": 42.9}
{"binder": "B1", "Relative cAMP EC50": 0.0121, "cAMP Rel EC50, nM (1% HSA)": 2.62}
{"binder": "B2", "Relative cAMP EC50": 0.0183, "cAMP Rel EC50, nM (1% HSA)": 1.97}
{"binder": "B3", "Relative cAMP EC50": 0.0165, "cAMP Rel EC50, nM (1% HSA)": 1.78}
{"target": "hGLP-1R (Homo sapiens, UniProt P43220)", "sequence (P43220 24-463)": "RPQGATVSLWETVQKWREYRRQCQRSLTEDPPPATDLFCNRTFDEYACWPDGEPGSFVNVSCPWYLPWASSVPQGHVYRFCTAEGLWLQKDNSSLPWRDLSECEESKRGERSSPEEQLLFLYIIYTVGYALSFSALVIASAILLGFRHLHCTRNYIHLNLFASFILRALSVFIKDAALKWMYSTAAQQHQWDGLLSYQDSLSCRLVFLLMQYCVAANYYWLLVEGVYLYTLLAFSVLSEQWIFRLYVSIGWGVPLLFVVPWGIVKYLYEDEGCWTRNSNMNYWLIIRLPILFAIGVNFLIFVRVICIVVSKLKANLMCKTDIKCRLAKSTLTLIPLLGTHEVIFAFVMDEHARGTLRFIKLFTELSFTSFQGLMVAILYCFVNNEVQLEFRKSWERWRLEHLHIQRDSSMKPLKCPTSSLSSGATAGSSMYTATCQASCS", "assay": "cell-based or functional assay", "units": {"Relative cAMP EC50": "nM", "cAMP Rel EC50, nM (1% HSA)": "nM", "cAMP Rel EC50 (1% HSA)": "nM"}}
{"binder": "Y[Aib]QGT[αMePhe(2-F)]TSDYSKLLDKIAQKAFIEYLIEGGPSSGAPPPSGE-NH2 (not fully specified (residue 20))", "note": "[Example 356]", "Relative cAMP EC50": 0.599, "cAMP Rel EC50, nM (1% HSA)": 206}
{"binder": "Y[Aib]QGT[αMePhe(2-F)]TSDFSILLDKQAQKAFIEYLLEGGPSSGEPPPSEG-NH2 (not fully specified (residue 20))", "note": "[Example 346]", "Relative cAMP EC50": 1.17, "cAMP Rel EC50 (1% HSA)": 514}
{"binder": "Y[Aib]QGTFTSDYSI[αMeL]LDKQAAKQFIEYLIA[Aib]GPSSGEPPPSEG-NH2 (not fully specified (residue 20))", "note": "[Example 349]", "Relative cAMP EC50": 0.555, "cAMP Rel EC50, nM (1% HSA)": 218}
{"binder": "Y[Aib]QGT[αMePhe(2-F)]TSD[Phe(4-CN)]SILLDKQAQKAFIEYLLEGGPSSGEPPPSAG-NH2 (not fully specified (residue 20))", "note": "[Example 350]", "Relative cAMP EC50": 0.776, "cAMP Rel EC50, nM (1% HSA)": 360}
{"binder": "Y[Aib]QGT[αMePhe(2-F)]TSD[Phe(4-CN)]SILLDKQAQKAFIQYLLEGGPSSGEPPPSEG-NH2 (not fully specified (residue 20))", "note": "[Example 341]", "Relative cAMP EC50": 1.62, "cAMP Rel EC50 (1% HSA)": 395}
{"binder": "Y[Aib]QGT[αMePhe(2-F)]TSD[Phe(4-CN)]SKLLDKIAQK([AEEA-γGlu-C20 diacid])AFIEYLIEGGPSSGEPPPSGS-NH2", "note": "[Example 364]", "Relative cAMP EC50": 1.1, "cAMP Rel EC50, nM (1% HSA)": 260}
{"binder": "Y[Aib]QGT[αMePhe(2-F)]TSD[Phe(4-CN)]SILLDKQAQKAFIQYLLEGGPSSGEPPPSEG-NH2 (not fully specified (residue 20))", "note": "[Example 353]", "Relative cAMP EC50": 0.634, "cAMP Rel EC50, nM (1% HSA)": 222}
{"binder": "Y[Aib]QGT[αMePhe(2-F)]TSDYSKILDKIAQKAFIEYLIEGGPSSGAPPPSEG-NH2 (not fully specified (residue 20))", "note": "[Example 355]", "Relative cAMP EC50": 1.01, "cAMP Rel EC50, nM (1% HSA)": 351}
{"binder": "Y[Aib]QGT[αMePhe(2-F)]TSDYSKLLDKIAQKAFIEYLIEGGPSSGAPPPEGE-NH2 (not fully specified (residue 20))", "note": "[Example 357]", "Relative cAMP EC50": 0.625, "cAMP Rel EC50, nM (1% HSA)": 248}
{"binder": "B1", "Relative cAMP EC50": 0.242, "cAMP Rel EC50, nM (1% HSA)": 37.4}
{"binder": "B2", "Relative cAMP EC50": 0.392, "cAMP Rel EC50, nM (1% HSA)": 54.5}
{"binder": "B3", "Relative cAMP EC50": 0.299, "cAMP Rel EC50, nM (1% HSA)": 18}
{"target": "human glucagon receptor (human) (UniProt P47871)", "sequence (P47871 26-477)": "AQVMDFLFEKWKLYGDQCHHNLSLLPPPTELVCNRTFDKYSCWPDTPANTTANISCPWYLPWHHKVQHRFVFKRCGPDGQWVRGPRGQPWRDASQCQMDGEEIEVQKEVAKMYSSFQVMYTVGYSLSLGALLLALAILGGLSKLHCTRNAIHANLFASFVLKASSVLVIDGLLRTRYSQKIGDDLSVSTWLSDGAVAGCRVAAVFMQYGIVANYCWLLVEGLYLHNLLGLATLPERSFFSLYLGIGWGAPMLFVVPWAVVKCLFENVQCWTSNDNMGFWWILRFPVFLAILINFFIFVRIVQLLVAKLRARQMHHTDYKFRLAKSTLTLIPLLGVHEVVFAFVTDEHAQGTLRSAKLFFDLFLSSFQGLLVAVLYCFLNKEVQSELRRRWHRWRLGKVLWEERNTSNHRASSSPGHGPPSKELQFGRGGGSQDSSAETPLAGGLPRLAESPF", "assay": "cell-based or functional assay", "units": {"Relative cAMP EC50": "nM", "cAMP Rel EC50, nM (1% HSA)": "nM", "cAMP Rel EC50 (1% HSA)": "nM"}}
{"binder": "Y[Aib]QGT[αMePhe(2-F)]TSDYSKLLDKIAQKAFIEYLIEGGPSSGAPPPSGE-NH2 (not fully specified (residue 20))", "note": "[Example 356]", "Relative cAMP EC50": 4.76, "cAMP Rel EC50, nM (1% HSA)": 2680}
{"binder": "Y[Aib]QGT[αMePhe(2-F)]TSDFSILLDKQAQKAFIEYLLEGGPSSGEPPPSEG-NH2 (not fully specified (residue 20))", "note": "[Example 346]", "Relative cAMP EC50": 15.6, "cAMP Rel EC50 (1% HSA)": 4310}
{"binder": "Y[Aib]QGTFTSDYSI[αMeL]LDKQAAKQFIEYLIA[Aib]GPSSGEPPPSEG-NH2 (not fully specified (residue 20))", "note": "[Example 349]", "Relative cAMP EC50": 5.12, "cAMP Rel EC50, nM (1% HSA)": 2280}
{"binder": "Y[Aib]QGT[αMePhe(2-F)]TSD[Phe(4-CN)]SILLDKQAQKAFIEYLLEGGPSSGEPPPSAG-NH2 (not fully specified (residue 20))", "note": "[Example 350]", "Relative cAMP EC50": 10.4, "cAMP Rel EC50, nM (1% HSA)": 3760}
{"binder": "Y[Aib]QGT[αMePhe(2-F)]TSD[Phe(4-CN)]SILLDKQAQKAFIQYLLEGGPSSGEPPPSEG-NH2 (not fully specified (residue 20))", "note": "[Example 341]", "Relative cAMP EC50": 10.7, "cAMP Rel EC50 (1% HSA)": 2930}
{"binder": "Y[Aib]QGT[αMePhe(2-F)]TSD[Phe(4-CN)]SKLLDKIAQK([AEEA-γGlu-C20 diacid])AFIEYLIEGGPSSGEPPPSGS-NH2", "note": "[Example 364]", "Relative cAMP EC50": 10.2, "cAMP Rel EC50, nM (1% HSA)": 3190}
{"binder": "Y[Aib]QGT[αMePhe(2-F)]TSD[Phe(4-CN)]SILLDKQAQKAFIQYLLEGGPSSGEPPPSEG-NH2 (not fully specified (residue 20))", "note": "[Example 353]", "Relative cAMP EC50": 11, "cAMP Rel EC50, nM (1% HSA)": 3080}
{"binder": "Y[Aib]QGT[αMePhe(2-F)]TSDYSKILDKIAQKAFIEYLIEGGPSSGAPPPSEG-NH2 (not fully specified (residue 20))", "note": "[Example 355]", "Relative cAMP EC50": 5.87, "cAMP Rel EC50, nM (1% HSA)": 3430}
{"binder": "Y[Aib]QGT[αMePhe(2-F)]TSDYSKLLDKIAQKAFIEYLIEGGPSSGAPPPEGE-NH2 (not fully specified (residue 20))", "note": "[Example 357]", "Relative cAMP EC50": 6.21, "cAMP Rel EC50, nM (1% HSA)": 1810}
{"binder": "B1", "Relative cAMP EC50": 0.481, "cAMP Rel EC50, nM (1% HSA)": 111}
{"binder": "B2", "Relative cAMP EC50": 4.48, "cAMP Rel EC50, nM (1% HSA)": 666}
{"binder": "B3", "Relative cAMP EC50": 1.32, "cAMP Rel EC50, nM (1% HSA)": 137}
